Results: patent US12091446 (NATIONAL TECHNOLOGY AND ENGINEERING SOLUTIONS OF SANDIA, dated 2024)
Residue numbers refer to the chain shown, from its start.

B1: AP1A5 Nb-huFc (Fc fusion)
chain: EVQLQASGGGFVQPGGSLRLSCAASGSTASHYTMGWFRQAPGKEREFVSAISSGRDHAKQYADSVKGRFTISRDNSKNTVYLQMNSLRAEDTATYYCAYEEINATQKDTLYWGQGTQVTVSS
B2: AP1B6 Nb-huFc (Fc fusion)
chain: EVQLQASGGGFVQPGGSLRLSCAASGSAFQIYAMGWFRQAPGKEREFVSAISSTDSETDHYADSVKGRFTISRDNSKNTVYLQMNSLRAEDTATYYCAVNGFDYAHSKAGPQVYWGQGTQVTVSS
B3: AP1C3 Nb-huFc (Fc fusion)
chain: EVQLQASGGGFVQPGGSLRLSCAASGRTYRGYSMGWFRQAPGKEREFVSAISSWSDDWTAYADSVKGRFTISRDNSKNTVYLQMNSLRAEDTATYYCAWQYIDEIQYYWGQGTQVTVSS
B4: AP1D4 Nb-huFc (Fc fusion)
chain: EVQLQASGGGFVQPGGSLRLSCAASGHTFDAHRMGWFRQAPGKEREFVSAISSWGQSSTYYADSVKGRFTISRDNSKNTVYLQMNSLRAEDTATYYCAQTDEGNQYVYWGQGTQVTVSS
B5: BP2A6 Nb-huFc (Fc fusion)
chain: EVQLQASGGGFVQPGGSLRLSCAASGQTFSHYIMGWFRQAPGKEREFVSAISAGQGHATYYADSVKGRFTISRDNSKNTVYLQMNSLRAEDTATYYCAKYQDTIAPLYWGQGTQVTVSS
B6: BP1A10 Nb-huFc (Fc fusion)
chain: EVQLQASGGGFVQPGGSLRLSCAASGQPSDRYIMGWFRQAPGKEREFVSAISQGAANKTAYADSVKGRFTISRDNSKNTVYLQMNSLRAEDTATYYCATHFNWQNYSYWGQGTQVTVSS
B7: KP1C9 Nb-huFc (Fc fusion)
chain: B3 chain with Y29F, R30D, G31A, W99L, Y101N, I102T, D103K, I105D, Q106R, Y107L
B8: BP1B1 Nb-huFc (Fc fusion)
chain: EVQLQASGGGFVQPGGSLRLSCAASGRTFSGYIMGWFRQAPGKEREFVSAISQGDSYASYYADSVKGRFTISRDNSKNTVYLQMNSLRAEDTATYYCALYDINTVPYYWGQGTQVTVSS
B9: BP2A3 Nb-huFc (Fc fusion)
chain: EVQLQASGGGFVQPGGSLRLSCAASGRTFSAYSMGWFRQAPGKEREFVSAISAGDGAASYYADSVKGRFTISRDNSKNTVYLQMNSLRAEDTATYYCAHYYTTSATLDYAYWGQGTQVTVSS
B10: DP4F2 Nb-huFc (Fc fusion)
chain: EVQLQASGGGFVQPGGSLRLSCAASGTTYSERVMGWFRQAPGKEREFVSAISSGQSDQTYYYADSVKGRFTISRDNSKNTVYLQMNSLRAEDTATYYCAPFAGDANLPREWYWGQGTQVTVSSA
B11: KP2C6 Nb-huFc (Fc fusion)
chain: EVQLQASGGGFVQPGGSLRLSCAASGRTFTSFHMGWFRQAPGKEREFVSAISSGDDGTQYYADSVKGRFTISRDNSKNTVYLQMNSLRAEDTATYYCAAYTTTTVPQYWGQGTQVTVSS
B12: KP1B5 Nb-huFc (Fc fusion)
chain: EVQLQASGGGFVQPGGSLRLSCAASGFTFDWSAMGWFRQAPGKEREFVSAISSSTSESTTYADSVKGRFTISRDNSKNTVYLQMNSLRAEDTATYYCATYYGGKTVEQDFYWGQGTQVTVSS

Biological target: T1, SARS-COV-2 spike, Wuhan (original) (SARS-COV-2, UniProt P0DTC2 14-1273)
Assay: cell-based or functional assay

Q: Which “EC50, neutralization of spike pseudotyped virus” value (shortened to “EC50, neutralization”) does the source give for B1 here?
A: 11.9 nM

Q: How did the “EC50, neutralization” value turn out when B2 was run?
A: 3.32 nM

Q: Which “EC50, neutralization” value does the source give for B3 here?
A: 1.04 nM

Q: With B4 as the binder, how does the “EC50, neutralization” value read?
A: 6.62 nM

Q: How did the “EC50, neutralization” value turn out when B5 was run?
A: 0.77 nM

Q: How did the “EC50, neutralization” value turn out when B6 was run?
A: 8.38 nM

Biological target: T1, SARS-COV-2 spike, Wuhan (original)
Assay: cell-based or functional assay
Remark: another data set of the same source

Q: For B7, which “EC50, neutralization” value is on record?
A: 2.89 nM

Q: For B8, which “EC50, neutralization” value is on record?
A: 4.13 nM

Q: B9 was tested. Which “EC50, neutralization” value did it give?
A: 58.5 nM

Q: With B10 as the binder, how does the “EC50, neutralization” value read?
A: 65.8 nM

Q: Which “EC50, neutralization” value does the source give for B11 here?
A: 517 nM

Q: For B12, which “EC50, neutralization” value is on record?
A: 896 nM
